B1: TRIM15: human RING type E3 ligase expressed from lentiviral vector (protein, UniProt Q9C019 1-465, looked up)
E3 ubiquitin-protein ligase …: MPATPSLKVVHELPACTLCAGPLEDAVTIPCGHTFCRLCLPALSQMGAQSSGKILLCPLCQEEEQAETPMAPVPLGPLGETYCEEHGEKIYFFCENDAEFLCVFCREGPTHQAHTVGFLDEAIQPYRDRLRSRLEALSTERDEIEDVKCQEDQKLQVLLTQIESKKHQVETAFERLQQELEQQRCLLLARLRELEQQIWKERDEYITKVSEEVTRLGAQVKELEEKCQQPASELLQDVRVNQSRCEMKTFVSPEAISPDLVKKIRDFHRKILTLPEMMRMFSENLAHHLEIDSGVITLDPQTASRSLVLSEDRKSVRYTRQKKSLPDSPLRFDGLPAVLGFPGFSSGRHRWQVDLQLGDGGGCTVGVAGEGVRRKGEMGLSAEDGVWAVIISHQQCWASTSPGTDLPLSEIPRGVRVALDYEAGQVTLHNAQTQEPIFTFTASFSGKVFPFFAVWKKGSCLTLKG
modifications: lentiviral expression
notes: human RING type E3 ligase expressed from lentiviral vector
B2: TRIM17: human RING type E3 ligase expressed from lentiviral vector (protein, UniProt Q9Y577 1-477, looked up)
E3 ubiquitin-protein ligase …: MEAVELARKLQEEATCSICLDYFTDPVMTTCGHNFCRACIQLSWEKARGKKGRRKRKGSFPCPECREMSPQRNLLPNRLLTKVAEMAQQHPGLQKQDLCQEHHEPLKLFCQKDQSPICVVCRESREHRLHRVLPAEEAVQGYKLKLEEDMEYLREQITRTGNLQAREEQSLAEWQGKVKERRERIVLEFEKMNLYLVEEEQRLLQALETEEEETASRLRESVACLDRQGHSLELLLLQLEERSTQGPLQMLQDMKEPLSRKNNVSVQCPEVAPPTRPRTVCRVPGQIEVLRGFLEDVVPDATSAYPYLLLYESRQRRYLGSSPEGSGFCSKDRFVAYPCAVGQTAFSSGRHYWEVGMNITGDALWALGVCRDNVSRKDRVPKCPENGFWVVQLSKGTKYLSTFSALTPVMLMEPPSHMGIFLDFEAGEVSFYSVSDGSHLHTYSQATFPGPLQPFFCLGAPKSGQMVISTVTMWVKG
B3: TRIM18: human RING type E3 ligase expressed from lentiviral vector (protein, UniProt O15344 1-667, looked up)
E3 ubiquitin-protein ligase …: METLESELTCPICLELFEDPLLLPCAHSLCFNCAHRILVSHCATNESVESITAFQCPTCRHVITLSQRGLDGLKRNVTLQNIIDRFQKASVSGPNSPSETRRERAFDANTMTSAEKVLCQFCDQDPAQDAVKTCVTCEVSYCDECLKATHPNKKPFTGHRLIEPIPDSHIRGLMCLEHEDEKVNMYCVTDDQLICALCKLVGRHRDHQVAALSERYDKLKQNLESNLTNLIKRNTELETLLAKLIQTCQHVEVNASRQEAKLTEECDLLIEIIQQRRQIIGTKIKEGKVMRLRKLAQQIANCKQCIERSASLISQAEHSLKENDHARFLQTAKNITERVSMATASSQVLIPEINLNDTFDTFALDFSREKKLLECLDYLTAPNPPTIREELCTASYDTITVHWTSDDEFSVVSYELQYTIFTGQANVVSLCNSADSWMIVPNIKQNHYTVHGLQSGTKYIFMVKAINQAGSRSSEPGKLKTNSQPFKLDPKSAHRKLKVSHDNLTVERDESSSKKSHTPERFTSQGSYGVAGNVFIDSGRHYWEVVISGSTWYAIGLAYKSAPKHEWIGKNSASWALCRCNNNWVVRHNSKEIPIEPAPHLRRVGILLDYDNGSIAFYDALNSIHLYTFDVAFAQPVCPTFTVWNKCLTIITGLPIPDHLDCTEQLP
modifications: lentiviral expression
notes: as for B1
B4: TRIM10: human RING type E3 ligase expressed from lentiviral vector (protein, UniProt Q9UDY6 1-481, looked up)
Tripartite motif-containing …: MASAASVTSLADEVNCPICQGTLREPVTIDCGHNFCRACLTRYCEIPGPDLEESPTCPLCKEPFRPGSFRPNWQLANVVENIERLQLVSTLGLGEEDVCQEHGEKIYFFCEDDEMQLCVVCREAGEHATHTMRFLEDAAAPYREQIHKCLKCLRKEREEIQEIQSRENKRMQVLLTQVSTKRQQVISEFAHLRKFLEEQQSILLAQLESQDGDILRQRDEFDLLVAGEICRFSALIEELEEKNERPARELLTDIRSTLIRCETRKCRKPVAVSPELGQRIRDFPQQALPLQREMKMFLEKLCFELDYEPAHISLDPQTSHPKLLLSEDHQRAQFSYKWQNSPDNPQRFDRATCVLAHTGITGGRHTWVVSIDLAHGGSCTVGVVSEDVQRKGELRLRPEEGVWAVRLAWGFVSALGSFPTRLTLKEQPRQVRVSLDYEVGWVTFTNAVTREPIYTFTASFTRKVIPFFGLWGRGSSFSLSS
modifications: lentiviral expression
notes: as for B1
B5: TRIM14: human RING type E3 ligase expressed from lentiviral vector (protein, UniProt Q14142 1-442, looked up)
Tripartite motif-containing …: MAGAATGSRTPGRSELVEGCGWRCPEHGDRVAELFCRRCRRCVCALCPVLGAHRGHPVGLALEAAVHVQKLSQECLKQLAIKKQQHIDNITQIEDATEKLKANAESSKTWLKGKFTELRLLLDEEEALAKKFIDKNTQLTLQVYREQADSCREQLDIMNDLSNRVWSISQEPDPVQRLQAYTATEQEMQQQMSLGELCHPVPLSFEPVKSFFKGLVEAVESTLQTPLDIRLKESINCQLSDPSSTKPGTLLKTSPSPERSLLLKYARTPTLDPDTMHARLRLSADRLTVRCGLLGSLGPVPVLRFDALWQVLARDCFATGRHYWEVDVQEAGAGWWVGAAYASLRRRGASAAARLGCNRQSWCLKRYDLEYWAFHDGQRSRLRPRDDLDRLGVFLDYEAGVLAFYDVTGGMSHLHTFRATFQEPLYPALRLWEGAISIPRLP
B6: TRIM11: human RING type E3 ligase expressed from lentiviral vector (protein, UniProt Q96F44 1-468, looked up)
E3 ubiquitin-protein ligase …: MAAPDLSTNLQEEATCAICLDYFTDPVMTDCGHNFCRECIRRCWGQPEGPYACPECRELSPQRNLRPNRPLAKMAEMARRLHPPSPVPQGVCPAHREPLAAFCGDELRLLCAACERSGEHWAHRVRPLQDAAEDLKAKLEKSLEHLRKQMQDALLFQAQADETCVLWQKMVESQRQNVLGEFERLRRLLAEEEQQLLQRLEEEELEVLPRLREGAAHLGQQSAHLAELIAELEGRCQLPALGLLQDIKDALRRVQDVKLQPPEVVPMELRTVCRVPGLVETLRRFRGDVTLDPDTANPELILSEDRRSVQRGDLRQALPDSPERFDPGPCVLGQERFTSGRHYWEVEVGDRTSWALGVCRENVNRKEKGELSAGNGFWILVFLGSYYNSSERALAPLRDPPRRVGIFLDYEAGHLSFYSATDGSLLFIFPEIPFSGTLRPLFSPLSSSPTPMTICRPKGGSGDTLAPQ
B7: RNF141: human RING type E3 ligase expressed from lentiviral vector (protein, UniProt Q8WVD5 2-230, looked up)
RING finger protein 141: GQQISDQTQLVINKLPEKVAKHVTLVRESGSLTYEEFLGRVAELNDVTAKVASGQEKHLLFEVQPGSDSSAFWKVVVRVVCTKINKSSGIVEASRIMNLYQFIQLYKDITSQAAGVLAQSSTSEEPDENSSSVTSCQASLWMGRVKQLTDEEECCICMDGRADLILPCAHSFCQKCIDKWSDRHRNCPICRLQMTGANESWVVSDAPTEDDMANYILNMADEAGQPHRP
B8: TRIM13: human RING type E3 ligase expressed from lentiviral vector (protein, UniProt O60858 1-407, looked up)
E3 ubiquitin-protein ligase …: MELLEEDLTCPICCSLFDDPRVLPCSHNFCKKCLEGILEGSVRNSLWRPAPFKCPTCRKETSATGINSLQVNYSLKGIVEKYNKIKISPKMPVCKGHLGQPLNIFCLTDMQLICGICATRGEHTKHVFCSIEDAYAQERDAFESLFQSFETWRRGDALSRLDTLETSKRKSLQLLTKDSDKVKEFFEKLQHTLDQKKNEILSDFETMKLAVMQAYDPEINKLNTILQEQRMAFNIAEAFKDVSEPIVFLQQMQEFREKIKVIKETPLPPSNLPASPLMKNFDTSQWEDIKLVDVDKLSLPQDTGTFISKIPWSFYKLFLLILLLGLVIVFGPTMFLEWSLFDDLATWKGCLSNFSSYLTKTADFIEQSVFYWEQVTDGFFIFNERFKNFTLVVLNNVAEFVCKYKLL
modifications: lentiviral expression
notes: as for B1
B9: TRIM9: human RING type E3 ligase expressed from lentiviral vector (protein, UniProt Q9C026 1-710, looked up)
E3 ubiquitin-protein ligase …: MEEMEEELKCPVCGSFYREPIILPCSHNLCQACARNILVQTPESESPQSHRAAGSGVSDYDYLDLDKMSLYSEADSGYGSYGGFASAPTTPCQKSPNGVRVFPPAMPPPATHLSPALAPVPRNSCITCPQCHRSLILDDRGLRGFPKNRVLEGVIDRYQQSKAAALKCQLCEKAPKEATVMCEQCDVFYCDPCRLRCHPPRGPLAKHRLVPPAQGRVSRRLSPRKVSTCTDHELENHSMYCVQCKMPVCYQCLEEGKHSSHEVKALGAMWKLHKSQLSQALNGLSDRAKEAKEFLVQLRNMVQQIQENSVEFEACLVAQCDALIDALNRRKAQLLARVNKEHEHKLKVVRDQISHCTVKLRQTTGLMEYCLEVIKENDPSGFLQISDALIRRVHLTEDQWGKGTLTPRMTTDFDLSLDNSPLLQSIHQLDFVQVKASSPVPATPILQLEECCTHNNSATLSWKQPPLSTVPADGYILELDDGNGGQFREVYVGKETMCTVDGLHFNSTYNARVKAFNKTGVSPYSKTLVLQTSEVAWFAFDPGSAHSDIILSNDNLTVTCSSYDDRVVLGKTGFSKGIHYWELTVDRYDNHPDPAFGVARMDVMKDVMLGKDDKAWAMYVDNNRSWFMHNNSHTNRTEGGITKGATIGVLLDLNRKNLTFFINDEQQGPIAFDNVEGLFFPAVSLNRNVQVTLHTGLPVPDFYSSRASIA

System: coxsackievirus B3 (CVB3-GFP)
Type: cell-based
Details: HeLa cells, replicate R1; for Percent Infected R1: GFP-positive cells within RFP-positive gate

Molecule	Percent Infected R1	Z score R1
B1	66.8%	−0.277
B2	75.9%	−0.162
B3	71.6%	−0.216
B4	58.7%	−0.38
B5	70.6%	−0.229
B6	58.2%	−0.387
B7	87.2%	−0.02
B8	53%	−0.453
B9	81.3%	−0.093
